Data reported in publication PMC9130954.

Key:
[1] = biological target: Photosystem I (PSI) complex from Anabaena sp. PCC 7120, the monomeric unit of the PSI oligomers (Anabaena sp. PCC 7120 (endogenous)) (UniProt P58576); assay: negative staining EM, single-particle 2D class averaging; purified PSI tetramer sample, 0.15 mg/ml, 0.75% uranyl formate, 120 kV; 359 particles; PSI tetramer structure as reference
[2] = biological target: Photosystem I (PSI) complex from Anabaena sp. PCC 7120, the monomeric unit of the PSI oligomers (Anabaena sp. PCC 7120 (endogenous)) (UniProt P58576); assay: negative staining EM, single-particle 2D class averaging; purified supercomplex 2 sample, 0.27 mg/ml, 0.75% uranyl formate, 120 kV; 822 particles; PSI tetramer models rigidly fitted over the 2D map
[3] = biological target: Photosystem I (PSI) complex from Anabaena sp. PCC 7120, the monomeric unit of the PSI oligomers (Anabaena sp. PCC 7120 (endogenous)) (UniProt P58576); assay: negative staining EM, single-particle 2D class averaging; purified supercomplex 1 sample, 0.19 mg/ml, 0.75% uranyl formate, 120 kV; 2,518 particles; PSI tetramer and dimer models rigidly fitted over the 2D map
[4] = biological target: Photosystem I (PSI) complex from Anabaena sp. PCC 7120, the monomeric unit of the PSI oligomers (Anabaena sp. PCC 7120 (endogenous)) (UniProt P58576); assay: cryo-EM structure; PSI supercomplex 2 purified by BN-PAGE and re-extraction (buffer A with 0.03% digitonin), about 2.5 mg/ml, fos-choline-8 at 1.0 mM added before blotting; single-particle map at 7.0 Å overall, no symmetry (C1); published PSI dimer (PDB 6K61) and tetramer (PDB 6TCL) models fitted as rigid bodies

“Photosystem I (PSI) complex from Anabaena sp. PCC 7120, the monomeric unit of the PSI oligomers (from UniProt P58576 1-752; P58565 1-741; P58564 24-164; P58583 1-86; P58577 1-172; Q8YNB0 1-32)” gave a stoichiometry N [1] of 4, a stoichiometry N [2] of 8 and a stoichiometry N [3] of 6. It also gave a stoichiometry N [4] of 8.
